These results are taken from paper PMC12102759 (2025).

The labels stand for the following.
B1: CBL peptide 538-553 (E3 ubiquitin-protein ligase CBL), 16-mer library wild type / YES SH3 (YES1 SH3 domain, residues 90-152) (parent complex)
chain 1: TLRDLPPPPPPDRPYS
chain 2: not shown
B2: PAIP1 peptide 124-139 (Polyadenylate-binding protein-interacting protein 1), 16-mer library wild type / PABPC1 PABC (PABPC1 PABC domain, residues 544-623) (parent complex)
chain 1: LMSKLSVNAPEFYPSG
chain 2: PLTASMLASAPPQEQKQMLGERLFPLIQAMHPTLAGKITGMLLEIDNSELLHMLESPESLRSKVDEAVAVLQAHQAKEAA

One experiment covers variants of B1. Briefly: proteomic peptide phage display deep mutational scan (ProP-PD DMS): M13 P8 16-mer library selected against immobilised GST-tagged bait for four days (rounds), NGS of the eluted pools per day and pseudo-replica; bait immobilised on MaxiSorp plates (10 µg), library pre-cleared on GST, 2 h binding at 4 °C, five washes; one round per day, days 1-4; value from days 2 and 3.
Take chain 1 P6M: the screen value was 0.000156 average fractional NGS count over selection days 2 and 3 (reads of this peptide / all reads for the bait, averaged over ….

Turning to chain 1 L5Q, the screen value was 0.000137 average fractional NGS count over selection days 2 and 3 (reads of this peptide / all reads for the bait, averaged over ….

Take chain 1 S16V: the screen value was 0.00134 average fractional NGS count over selection days 2 and 3 (reads of this peptide / all reads for the bait, averaged over ….

Turning to chain 1 S16W, the screen value was 0.00897 average fractional NGS count over selection days 2 and 3 (reads of this peptide / all reads for the bait, averaged over ….

With chain 1 S16E, the screen value was 0.000858 average fractional NGS count over selection days 2 and 3 (reads of this peptide / all reads for the bait, averaged over ….

On to chain 1 S16T, for which the screen value was 0.000743 average fractional NGS count over selection days 2 and 3 (reads of this peptide / all reads for the bait, averaged over ….

As to chain 1 R3H, the screen value is 0.000385 average fractional NGS count over selection days 2 and 3 (reads of this peptide / all reads for the bait, averaged over ….

As to chain 1 R3E, the screen value is 0.000121 average fractional NGS count over selection days 2 and 3 (reads of this peptide / all reads for the bait, averaged over ….

As for chain 1 R3Y, the screen value was 0.000386 average fractional NGS count over selection days 2 and 3 (reads of this peptide / all reads for the bait, averaged over ….

Turning to chain 1 R13L, the screen value was 0.00161 average fractional NGS count over selection days 2 and 3 (reads of this peptide / all reads for the bait, averaged over ….

Turning to chain 1 R13Q, the screen value was 0.000164 average fractional NGS count over selection days 2 and 3 (reads of this peptide / all reads for the bait, averaged over ….

chain 1 R13Y: the screen value is 0.000779 average fractional NGS count over selection days 2 and 3 (reads of this peptide / all reads for the bait, averaged over ….

Consider chain 1 R13M, for which the screen value is 0.000309 average fractional NGS count over selection days 2 and 3 (reads of this peptide / all reads for the bait, averaged over ….

Take chain 1 L2Q: the screen value was 0.00095 average fractional NGS count over selection days 2 and 3 (reads of this peptide / all reads for the bait, averaged over ….

As to chain 1 L2G, the screen value was 0.000674 average fractional NGS count over selection days 2 and 3 (reads of this peptide / all reads for the bait, averaged over ….

Consider chain 1 L2Y, for which the screen value is 0.00467 average fractional NGS count over selection days 2 and 3 (reads of this peptide / all reads for the bait, averaged over ….

With chain 1 D12S, the screen value was 0.000329 average fractional NGS count over selection days 2 and 3 (reads of this peptide / all reads for the bait, averaged over ….

For chain 1 D12I, the screen value was 0.00442 average fractional NGS count over selection days 2 and 3 (reads of this peptide / all reads for the bait, averaged over ….

As for chain 1 D12Y, the screen value is 0.00156 average fractional NGS count over selection days 2 and 3 (reads of this peptide / all reads for the bait, averaged over ….

Take chain 1 P7Y: the screen value was 0.000234 average fractional NGS count over selection days 2 and 3 (reads of this peptide / all reads for the bait, averaged over ….

Consider chain 1 P7F, for which the screen value is 0.000149 average fractional NGS count over selection days 2 and 3 (reads of this peptide / all reads for the bait, averaged over ….

Turning to chain 1 P7Q, the screen value was 0.000151 average fractional NGS count over selection days 2 and 3 (reads of this peptide / all reads for the bait, averaged over ….

Regarding chain 1 D4V, the screen value is 0.00269 average fractional NGS count over selection days 2 and 3 (reads of this peptide / all reads for the bait, averaged over ….

As for chain 1 D4N, the screen value was 0.00132 average fractional NGS count over selection days 2 and 3 (reads of this peptide / all reads for the bait, averaged over ….

For the variant chain 1 D4L, the screen value is 0.000198 average fractional NGS count over selection days 2 and 3 (reads of this peptide / all reads for the bait, averaged over ….

Turning to chain 1 Y15G, the screen value is 0.000388 average fractional NGS count over selection days 2 and 3 (reads of this peptide / all reads for the bait, averaged over ….

As for chain 1 Y15A, the screen value was 0.00482 average fractional NGS count over selection days 2 and 3 (reads of this peptide / all reads for the bait, averaged over ….

Turning to chain 1 Y15E, the screen value was 9.17e-05 average fractional NGS count over selection days 2 and 3 (reads of this peptide / all reads for the bait, averaged over ….

Regarding chain 1 Y15H, the screen value is 0.0004 average fractional NGS count over selection days 2 and 3 (reads of this peptide / all reads for the bait, averaged over ….

With chain 1 Y15S, the screen value was 0.000415 average fractional NGS count over selection days 2 and 3 (reads of this peptide / all reads for the bait, averaged over ….

As for chain 1 Y15K, the screen value is 0.000227 average fractional NGS count over selection days 2 and 3 (reads of this peptide / all reads for the bait, averaged over ….

On to chain 1 P8L, for which the screen value is 0.000561 average fractional NGS count over selection days 2 and 3 (reads of this peptide / all reads for the bait, averaged over ….

Take chain 1 P8A: the screen value is 9.08e-05 average fractional NGS count over selection days 2 and 3 (reads of this peptide / all reads for the bait, averaged over ….

On to chain 1 P10V, for which the screen value was 0.00306 average fractional NGS count over selection days 2 and 3 (reads of this peptide / all reads for the bait, averaged over ….

With chain 1 P14M, the screen value is 0.00532 average fractional NGS count over selection days 2 and 3 (reads of this peptide / all reads for the bait, averaged over ….

Another experiment covers variants of B2. The description is as above.
As to chain 1 S3W, the screen value is 0.00081 average fractional NGS count over selection days 2 and 3 (reads of this peptide / all reads for the bait, averaged over ….

With chain 1 S3K, the screen value is 0.000637 average fractional NGS count over selection days 2 and 3 (reads of this peptide / all reads for the bait, averaged over ….

For chain 1 S3T, the screen value is 0.00109 average fractional NGS count over selection days 2 and 3 (reads of this peptide / all reads for the bait, averaged over ….

With chain 1 S3Q, the screen value is 0.00262 average fractional NGS count over selection days 2 and 3 (reads of this peptide / all reads for the bait, averaged over ….

Regarding chain 1 S3L, the screen value was 0.000356 average fractional NGS count over selection days 2 and 3 (reads of this peptide / all reads for the bait, averaged over ….

With chain 1 S3E, the screen value was 0.000689 average fractional NGS count over selection days 2 and 3 (reads of this peptide / all reads for the bait, averaged over ….

Turning to chain 1 S3D, the screen value is 0.000994 average fractional NGS count over selection days 2 and 3 (reads of this peptide / all reads for the bait, averaged over ….

For the variant chain 1 S3V, the screen value was 0.00074 average fractional NGS count over selection days 2 and 3 (reads of this peptide / all reads for the bait, averaged over ….

Take chain 1 S3H: the screen value was 0.000523 average fractional NGS count over selection days 2 and 3 (reads of this peptide / all reads for the bait, averaged over ….

With chain 1 E11S, the screen value is 0.00171 average fractional NGS count over selection days 2 and 3 (reads of this peptide / all reads for the bait, averaged over ….

chain 1 E11V: the screen value was 0.00325 average fractional NGS count over selection days 2 and 3 (reads of this peptide / all reads for the bait, averaged over ….

Regarding chain 1 E11Y, the screen value is 0.000125 average fractional NGS count over selection days 2 and 3 (reads of this peptide / all reads for the bait, averaged over ….

In the case of chain 1 E11P, the screen value was 0.000423 average fractional NGS count over selection days 2 and 3 (reads of this peptide / all reads for the bait, averaged over ….

chain 1 E11T: the screen value was 0.000925 average fractional NGS count over selection days 2 and 3 (reads of this peptide / all reads for the bait, averaged over ….

As for chain 1 E11A, the screen value is 0.00172 average fractional NGS count over selection days 2 and 3 (reads of this peptide / all reads for the bait, averaged over ….

Take chain 1 E11D: the screen value is 0.000612 average fractional NGS count over selection days 2 and 3 (reads of this peptide / all reads for the bait, averaged over ….

With chain 1 E11I, the screen value is 0.000759 average fractional NGS count over selection days 2 and 3 (reads of this peptide / all reads for the bait, averaged over ….

As to chain 1 E11M, the screen value was 0.000642 average fractional NGS count over selection days 2 and 3 (reads of this peptide / all reads for the bait, averaged over ….

As to chain 1 S15Y, the screen value is 0.00169 average fractional NGS count over selection days 2 and 3 (reads of this peptide / all reads for the bait, averaged over ….

As to chain 1 S15W, the screen value is 0.000557 average fractional NGS count over selection days 2 and 3 (reads of this peptide / all reads for the bait, averaged over ….

For chain 1 S15D, the screen value is 0.00256 average fractional NGS count over selection days 2 and 3 (reads of this peptide / all reads for the bait, averaged over ….

In the case of chain 1 S15A, the screen value was 0.00144 average fractional NGS count over selection days 2 and 3 (reads of this peptide / all reads for the bait, averaged over ….

Regarding chain 1 S15G, the screen value is 0.00184 average fractional NGS count over selection days 2 and 3 (reads of this peptide / all reads for the bait, averaged over ….

As for chain 1 S15H, the screen value was 0.0055 average fractional NGS count over selection days 2 and 3 (reads of this peptide / all reads for the bait, averaged over ….

Consider chain 1 S15K, for which the screen value was 0.000858 average fractional NGS count over selection days 2 and 3 (reads of this peptide / all reads for the bait, averaged over ….

chain 1 S15M: the screen value is 0.00153 average fractional NGS count over selection days 2 and 3 (reads of this peptide / all reads for the bait, averaged over ….

With chain 1 S15P, the screen value is 0.000374 average fractional NGS count over selection days 2 and 3 (reads of this peptide / all reads for the bait, averaged over ….

On to chain 1 S15E, for which the screen value is 0.0098 average fractional NGS count over selection days 2 and 3 (reads of this peptide / all reads for the bait, averaged over ….

Regarding chain 1 S15T, the screen value is 0.000722 average fractional NGS count over selection days 2 and 3 (reads of this peptide / all reads for the bait, averaged over ….

For chain 1 S15I, the screen value was 0.000837 average fractional NGS count over selection days 2 and 3 (reads of this peptide / all reads for the bait, averaged over ….

On to chain 1 S15R, for which the screen value is 0.00163 average fractional NGS count over selection days 2 and 3 (reads of this peptide / all reads for the bait, averaged over ….

For chain 1 S15V, the screen value was 0.00767 average fractional NGS count over selection days 2 and 3 (reads of this peptide / all reads for the bait, averaged over ….

In the case of chain 1 F12Y, the screen value was 0.00127 average fractional NGS count over selection days 2 and 3 (reads of this peptide / all reads for the bait, averaged over ….

As for chain 1 F12W, the screen value was 0.00452 average fractional NGS count over selection days 2 and 3 (reads of this peptide / all reads for the bait, averaged over ….

With chain 1 L5W, the screen value was 0.000754 average fractional NGS count over selection days 2 and 3 (reads of this peptide / all reads for the bait, averaged over ….

For chain 1 L5M, the screen value was 0.0192 average fractional NGS count over selection days 2 and 3 (reads of this peptide / all reads for the bait, averaged over ….

For chain 1 G16S, the screen value was 0.0008 average fractional NGS count over selection days 2 and 3 (reads of this peptide / all reads for the bait, averaged over ….

Turning to chain 1 G16F, the screen value was 0.00158 average fractional NGS count over selection days 2 and 3 (reads of this peptide / all reads for the bait, averaged over ….

For chain 1 G16Q, the screen value is 0.00204 average fractional NGS count over selection days 2 and 3 (reads of this peptide / all reads for the bait, averaged over ….

Consider chain 1 G16I, for which the screen value is 0.00186 average fractional NGS count over selection days 2 and 3 (reads of this peptide / all reads for the bait, averaged over ….
